The labels stand for the following.
B1: VprBP WD40-AR(1057–1507) (domain or fragment)
chain: not shown
notes: source: Trichoplusia ni (Tni)-FNL insect cells, purified (HisTrap, TEV digestion, SEC); not shown: His, N-terminal, cleaved; MBP, N-terminal, cleaved
B2: Plk4 CPB(581–808) (domain or fragment, UniProt O00444 581-808, looked up)
chain: GYQNRTLRSITSPLVAHRLKPIRQKTKKAVVSILDSEEVCVELVKEYASQEYVKEVLQISSDGNTITIYYPNGGRGFPLADRPPSPTDNISRYSFDNLPEKYWRKYQYASRFVQLVRSKSPKITYFTRYAKCILMENSPGADFEVWFYDGVKIHKTEDFIQVIEKTGKSYTLKSESEVNSLKEEIKMYMDHANEGHRICLALESIISEEERKTRSAPFFPIIIGRKPG
notes: Polo-like kinase 4 (Plk4), cryptic polo-box (CPB), residues 581-808; a TEV site follows His-MBP and the legends call the protein CPB(581–808); Two CPB chains are estimated for each Vpr•VprBP; source: E. coli, purified
B3: VprBP (transfected; construct not specified in the text) (natural protein)
chain: not shown
notes: VprBP (DDB1-CUL4-Associated Factor 1); may be full length or a WD40-containing fragment, and in some panels perhaps the endogenous protein; source: HEK293T, transfected, in lysate
B4: Vpr (co-expressed with VprBP WD40-AR in insect cells) (natural protein)
chain: MEQAPEDQGPQREPYNEWTLELLEELKSEAVRHFPRIWLHNLGQHIYETYGDTWAGVEAIIRILQQLLFIHFRIGCRHSRIGVTRQRRARNGASRS
notes: also called 11-kDa Vpr

In assay [1] the target is T1, DDB1 (purified) (UniProt Q16531 1-1140).
T1 construct: DDB1
T1 sequence (Q16531 whole entry): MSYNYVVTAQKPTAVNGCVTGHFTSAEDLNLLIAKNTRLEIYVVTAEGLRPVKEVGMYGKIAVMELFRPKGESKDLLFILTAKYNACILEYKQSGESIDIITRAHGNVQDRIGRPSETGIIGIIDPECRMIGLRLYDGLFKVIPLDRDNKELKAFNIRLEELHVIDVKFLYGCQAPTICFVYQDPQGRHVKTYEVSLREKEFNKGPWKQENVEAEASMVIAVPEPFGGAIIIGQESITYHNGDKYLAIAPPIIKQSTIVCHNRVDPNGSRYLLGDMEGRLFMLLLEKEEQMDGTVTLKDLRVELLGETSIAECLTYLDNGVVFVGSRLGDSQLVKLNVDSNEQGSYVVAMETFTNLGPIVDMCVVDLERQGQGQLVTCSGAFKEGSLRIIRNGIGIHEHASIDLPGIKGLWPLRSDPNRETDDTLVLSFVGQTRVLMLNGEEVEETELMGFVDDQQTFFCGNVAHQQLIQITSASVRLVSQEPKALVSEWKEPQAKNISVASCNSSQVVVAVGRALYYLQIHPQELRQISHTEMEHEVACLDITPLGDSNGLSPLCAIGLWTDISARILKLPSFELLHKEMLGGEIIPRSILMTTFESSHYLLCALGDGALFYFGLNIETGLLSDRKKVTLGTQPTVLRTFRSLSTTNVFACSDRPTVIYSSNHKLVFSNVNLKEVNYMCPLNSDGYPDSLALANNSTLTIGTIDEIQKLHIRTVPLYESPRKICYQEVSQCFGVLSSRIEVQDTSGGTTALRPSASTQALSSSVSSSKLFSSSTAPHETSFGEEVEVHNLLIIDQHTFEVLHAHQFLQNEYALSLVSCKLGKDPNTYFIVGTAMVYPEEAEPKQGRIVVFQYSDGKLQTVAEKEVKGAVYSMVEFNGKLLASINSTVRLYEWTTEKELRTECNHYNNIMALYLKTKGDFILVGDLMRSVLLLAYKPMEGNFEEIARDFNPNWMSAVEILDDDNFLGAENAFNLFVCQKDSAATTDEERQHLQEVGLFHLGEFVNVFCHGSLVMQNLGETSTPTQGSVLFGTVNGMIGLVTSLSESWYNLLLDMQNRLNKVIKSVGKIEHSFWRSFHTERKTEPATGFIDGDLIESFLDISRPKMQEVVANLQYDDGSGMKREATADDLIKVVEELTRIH
Put plainly: SEC; purified proteins (Vpr, VprBP WD40-AR, Plk4 CPB, DDB1); TEV-digested HisTrap eluate of Vpr•VprBP mixed with Plk4 CPB; 20 mM Tris-HCl pH 7.5, 100 mM NaCl, 10% glycerol; stoichiometry estimated from Coomassie intensity. Particulars: both partners purified.

Assay [2] concerns the target T2, Vpr•VprBP WD40-AR complex ( | HIV-1 (NL4-3 isolate), UniProt Q9Y4B6 1057-1507; P12520 1-96).
T2 construct: DNA synthesised by GenScript; TEV digestion is told for the SEC sample; also called VprBP (WD40-AR)•Vpr complex; source: Trichoplusia ni (Tni)-FNL insect cells, co-expressed, purified (HisTrap, TEV digestion); not shown: His, N-terminal, cleaved; MBP, N-terminal, cleaved; copies: 1 + 1
Described as above. The conditions noted are these: both partners purified.

Assay [3] deals with T3, Plk1 (UniProt P53350 1-603).
T3 construct: Polo-like kinase 1 (Plk1); also called mitotic Plk1; source: HEK293T, transfected, in lysate
T3 sequence (P53350 whole entry): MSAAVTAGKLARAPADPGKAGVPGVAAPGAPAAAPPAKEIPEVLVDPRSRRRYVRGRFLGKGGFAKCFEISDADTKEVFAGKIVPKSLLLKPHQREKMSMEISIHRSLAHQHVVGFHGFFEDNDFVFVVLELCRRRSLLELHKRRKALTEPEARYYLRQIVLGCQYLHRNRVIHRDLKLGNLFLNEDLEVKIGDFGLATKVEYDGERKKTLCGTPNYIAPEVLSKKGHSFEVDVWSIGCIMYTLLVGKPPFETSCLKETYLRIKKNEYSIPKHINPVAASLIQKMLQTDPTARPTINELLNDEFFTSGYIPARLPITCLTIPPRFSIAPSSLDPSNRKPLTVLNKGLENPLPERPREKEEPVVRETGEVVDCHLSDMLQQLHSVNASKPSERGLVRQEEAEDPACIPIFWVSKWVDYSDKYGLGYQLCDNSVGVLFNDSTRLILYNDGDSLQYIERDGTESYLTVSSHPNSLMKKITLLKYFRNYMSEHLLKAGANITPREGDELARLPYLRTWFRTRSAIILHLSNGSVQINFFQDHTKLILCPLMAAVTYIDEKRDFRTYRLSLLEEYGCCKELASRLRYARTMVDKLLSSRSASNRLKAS
Put plainly: co-IP; HEK293T cells transfected with the indicated constructs; TBSN buffer (20 mM Tris-HCl pH 8.0, 120 mM NaCl, 0.5% Nonidet P-40, 5 mM EGTA, 1.5 mM EDTA, 2 mM DTT); immunoblot; Supplementary Fig. 2b under thymidine or nocodazole treatment. Particulars: partners not purified. Background: In western blotting, separated proteins are transferred to a membrane and probed.

Assay [4] deals with B2. The assay can be described thus: SEC; purified proteins (Vpr, VprBP WD40-AR, Plk4 CPB, DDB1); TEV-digested HisTrap eluate of Vpr•VprBP mixed with Plk4 CPB; 20 mM Tris-HCl pH 7.5, 100 mM NaCl, 10% glycerol; stoichiometry estimated from Coomassie intensity. The conditions noted are these: both partners purified.

Data on four molecules can be found in article PMC10914751 (Nature Communications, 2024).

As to B1, in assay [1], the binding result was “binds”.
As for B2, the stoichiometry N (as a rule, a count of units in the complex or per binding partner) in assay [2] is around 2.
As to B3, in assay [3], the “fold weaker binding than Plk4” value is around 3 fold.
Turning to B4, in assay [4], the binding result was “binds”.
